The RNAGym collection of RNA variant scans (doi:10.7554/elife.90254)

B1: LINE1-full (parent)
chain: UACGUAGGUGGUUUUCCCCUGAUAGUGCUAAGGGGGCCUGGAAGUUUGGACUGGGCAGAGCUCAACACAGCGUGGCAAAGUGGCUGUGGCUAGACUGCCUCUCUGGAUUCCUCGUCACUCAGCAGGGCAUCUCUGAGAGAAAUGCC

Variants of: B1
Test: self-cleavage, relative activity (ratio to wild type); higher = more cleavage; in vitro, sequencing; the parent is a self-cleaving ribozyme
Work on A94G A141G yielded a self-cleavage of 0.25.
Work on A42U U102G yielded a self-cleavage of 0.09.
A67C U119C gave a self-cleavage of 0.09.
Variant U9C U52A has a self-cleavage of 2.31.
In the case of U1C C17U, the self-cleavage is reported as 0.87.
In the case of U12C G55A, the self-cleavage is reported as 0.64.
G54A U62A showed a self-cleavage of 0.01.
U12C G97A gave a self-cleavage of 0.22.
In the case of G75U A78U, the self-cleavage is reported as 1.49.
With G97C U102C the self-cleavage was 0.14.
G114A A117G showed a self-cleavage of 1.27.
U12A A138G showed a self-cleavage of 1.37.
For U62C G70A, the self-cleavage was 0.01.
With U134A A140U the self-cleavage was 0.85.
Work on U23C C101U yielded a self-cleavage of 1.31.
For G70A A129G, the self-cleavage was 0.09.
In the case of U26G A124G, the self-cleavage is reported as 0.69.
With U81G A107G the self-cleavage was 1.01.
C113U A124G gave a self-cleavage of 1.31.
For U14C U100G, the self-cleavage was 1.38.
Work on G60A U115C yielded a self-cleavage of 0.04.
For A50U A129G, the self-cleavage was 0.83.
Variant A42U U143C has a self-cleavage of 0.94.
Work on A50U C90U yielded a self-cleavage of 0.05.
Work on G58U U100G yielded a self-cleavage of 0.2.
Work on U14A U104C yielded a self-cleavage of 1.69.
C38U A79G gave a self-cleavage of 1.29.
Variant A65U U96C has a self-cleavage of 0.02.
In the case of G10A C90U, the self-cleavage is reported as 0.06.
For C61A C123U, the self-cleavage was 0.03.
Variant A50U U85A has a self-cleavage of 0.05.
In the case of A121G G122A, the self-cleavage is reported as 1.46.
U9A U132C showed a self-cleavage of 1.04.
With G40U A79G the self-cleavage was 1.09.
For C68U A124U, the self-cleavage was 0.28.
In the case of A50U A142G, the self-cleavage is reported as 1.01.
A22G G33A showed a self-cleavage of 0.65.
For C28U A92G, the self-cleavage was 0.11.
Variant G97A A121G has a self-cleavage of 0.05.
Work on G7U G70A yielded a self-cleavage of 0.2.
For C18A A94G, the self-cleavage was 0.22.
Work on G74A U109C yielded a self-cleavage of 0.7.
Variant U20C U45C has a self-cleavage of 1.19.
Work on A65G A79G yielded a self-cleavage of 0.09.
G75A A129G gave a self-cleavage of 1.61.
In the case of A117C U143A, the self-cleavage is reported as 1.38.
With A67U the self-cleavage was 0.11.
For U108C C131U, the self-cleavage was 2.2.
Work on A22U A142G yielded a self-cleavage of 1.31.
With U45A G74U the self-cleavage was 1.59.
In the case of A50U U132C, the self-cleavage is reported as 1.05.
With A69U G127C the self-cleavage was 0.12.
Work on A30U G35A yielded a self-cleavage of 1.07.
Variant A94G U109A has a self-cleavage of 0.39.
For G54U C71U, the self-cleavage was 0.16.
For U47C A92U, the self-cleavage was 0.77.
With U12G A59U the self-cleavage was 1.15.
For A43G U119C, the self-cleavage was 1.51.
For U5C A117G, the self-cleavage was 0.81.
With G36A U119A the self-cleavage was 1.36.
Work on G21A U91A yielded a self-cleavage of 0.37.
A30U U108C showed a self-cleavage of 0.41.
Work on A77U U109A yielded a self-cleavage of 1.68.
G70A U134C gave a self-cleavage of 0.15.
U1C G139U gave a self-cleavage of 0.74.
In the case of G82A A138U, the self-cleavage is reported as 1.9.
Work on U15C A142C yielded a self-cleavage of 1.8.
U13A U143A gave a self-cleavage of 0.84.
G106U U112C gave a self-cleavage of 0.82.
In the case of U9C A142C, the self-cleavage is reported as 0.83.
Work on A59G U119C yielded a self-cleavage of 0.13.
G122U C123U showed a self-cleavage of 0.8.
U91C A141G gave a self-cleavage of 0.92.
U15A G35U gave a self-cleavage of 1.16.
G40U U134C gave a self-cleavage of 1.6.
In the case of U91C A136U, the self-cleavage is reported as 0.58.
U45C A79U gave a self-cleavage of 1.92.
In the case of U81A G83U, the self-cleavage is reported as 1.3.
U20G U100C showed a self-cleavage of 1.06.
G8A A141G gave a self-cleavage of 1.1.
Work on G32U C113A yielded a self-cleavage of 0.96.
G32C A42U gave a self-cleavage of 1.67.
With G49A A107G the self-cleavage was 0.73.
A77C A142G showed a self-cleavage of 1.34.
